Biological target: SARS-CoV-2 RBD, His6-tagged, for biolayer interferometry (SARS-CoV-2, UniProt P0DTC2 319-541)
Assay: BLI

B1: 47D1 Fab (Fab, V domains shown)
VH: QVQLVQSGAEVKKPGSSVRVSCKASGGTFSTYPISWVRQAPGQGLEWMGGIIPIFGTAKSAQKFQGRVTITADEFTSTAYMEMSSLRSEDTAMYYCAREGRRYGSGWYISTGYFDYWGQGTLVTVSS
VL: QLVLTQPASVSGSPGQSIIVSCTGTSSDVGGYKFVSWYQQHPGKAPRVMIYDVSNRPSGVSNRFSGSKSGNTASLTISGLQADDEADYYCSSYTNSSTVVFGGGTKVTVL
**Q.** For B1, which Kd is on record?
**A.** 2 nM

Reference: paper PMC8064889 (2021)
